Laboratory results published in article PMC8480326, “Chemoenzymatic glycan-selective remodeling of a therapeutic lysosomal enzyme with high-affinity M6P-glycan ligands. Enzyme substrate specificity is the name of the game” (Chemical Science, 2021).

Experiment: observation during stepwise remodeling
Conditions: glycan lost; control: commercial rhGAA

With “recombinant human acid α-glucosidase (rhGAA, Lumizyme): Endo-F3 deglycosylation” the stability_or_folding was “decreases”.
